The RNAGym collection of RNA variant scans (doi:10.7554/elife.80360)

B1: HDV Ribozyme (parent)
chain: GGCCGGCAUGGUCCCAGCCUCCUCGCUGGCGCCGGCUGGGCAACAUUCCGAGGGGACCGUCCCCUCGGUAAUGGCGAAUGGGACCCA

Variants of: B1
Test: self-cleavage, relative activity (ratio to wild type); higher = more cleavage; co-transcriptional

Row | Variant | self-cleavage
1 | GGCCGGCAUGGUCCCAGCCUCCUCGCUGGCGCCGGCUGGGCAACUUUCCGAGCGGACCGUCCCCUCGGUAAUGGCGAAUGGGACCCA [A45U G53C] | 0.778
2 | GGCCGGCAUGGUCCCAGCCUCCUCGCUGGCGCCGGCUGGGCAACAAUCCGAGGGGACAGUCCCCUCGGUAAUGGCGAAUGGGACCCA [U46A C58A] | 0.57
3 | GGCCGGCAUGGUCCCAGCCUCCUCGCUGGCGCCGGCUGGGCAACAAUCCGAGGGGACUGUCCCCUCGGUAAUGGCGAAUGGGACCCA [U46A C58U] | 0.482
4 | GGCCGGCAUGGUCCCAGCCUCCUCGCUGGCGCCGGCUGGGCAACUUUCCGAGGGGACAGUCCCCUCGGUAAUGGCGAAUGGGACCCA [A45U C58A] | 0.539
5 | GGCCGGCAUGGUCCCAGCCUCCUCGCUGGCGCCGGCUGGGCAACAAUCCGAGGGGACCGUCCCCUCGGUAAUGGCGAAUGGGAGCCA [U46A C84G] | 0.68
6 | GGCCGGCAUGGUCCCAGCCUCCUCGCUGGCGCCGGCUGGGCAACUUUCUGAGGGGACCGUCCCCUCGGUAAUGGCGAAUGGGACCCA [A45U C49U] | 0.706
7 | GGCCGGCAUGGUCCCAGCCUCCUCGCUGGCGCCGGCUGGGCAACUUUCCGAGGGGACCGUCCCCUCGAUAAUGGCGAAUGGGACCCA [A45U G68A] | 0.712
8 | GGCCGGCAUGGUCCCAGCCUCCUCGCUGGCGCCGGCUGGGCAACAAUCCGAGGGGACCGUCCCCUCGGUAAUGGCGAAUGGGACUCA [U46A C85U] | 0.675
9 | GGCCGGCAUGGUCCCAGCCUCCUCGCUGGCGCCGGCUGGGCAACAAUCCGAGGGGACCGUCCCCUCGGUAAUGGCGAAUGGGGCCCA [U46A A83G] | 0.378
10 | GGCCGGCAUGGUCCCAGCCUCCUCGCUGGCGCCGGCUGGGCAACAAUCCGAGGGGACCGUCCCCUCGGUAAUGGCGAAUGGGUCCCA [U46A A83U] | 0.277
11 | GGCCGGCAUGGUCCCAGCCUCCUCGCUGGCGCCGGCUGGGCAACAAUCCGAGGGGACCGUCCCCUCGGUAAUGGCGAAUGGGCCCCA [U46A A83C] | 0.323
12 | GGCCGGCAUGGUCCCAGCCUCCUCGCUGGCGCCGGCUGGGCAACUUUCCGAGGGGACCGUCCCCUCGGUAAUGGCGAAUGGGACGCA [A45U C85G] | 0.847
13 | GGCCGGCAUGGUCCCAGCCUCCUCGCUGGCGCCGGCUGGGCAACUUUCCGAGGGGACCGUCCCCUCGGUAAUGGCGAAUGGGACCCU [A45U A87U] | 0.734
14 | GGCCGGCAUGGUCCCAGCCUCCUCGCUGGCGCCGGCUGGGCAACUUUCCGAGGGGACCGUCCCCUCGGUAAUGGCGAAUGGGACCCG [A45U A87G] | 0.737
15 | GGCCGGCAUGGUCCCAGCCUCCUCGCUGGCGCCGGCUGGGCAACUUUCCUAGGGGACCGUCCCCUCGGUAAUGGCGAAUGGGACCCA [A45U G50U] | 0.793
16 | GGCCGGCAUGGUCCCAGCCUCCUCGCUGGCGCCGGCUGGGCAACUUUCCGAGGGGACCGUCCCCUCGGUAAAGGCGAAUGGGACCCA [A45U U72A] | 0.831
17 | GGCCGGCAUGGUCCCAGCCUCCUCGCUGGCGCCGGCUGGGCAACUUUCCGAGGGGACCGUGCCCUCGGUAAUGGCGAAUGGGACCCA [A45U C61G] | 0.815
18 | GGCCGGCAUGGUCCCAGCCUCCUCGCUGGCGCCGGCUGGGCAACAAUCCGAGGGGACCGUCCCCUCGGUAUUGGCGAAUGGGACCCA [U46A A71U] | 0.95
19 | GGCCGGCAUGGUCCCAGCCUCCUCGCUGGCGCCGGCUGGGCAACAAUCCGAGGGGACCGUCCCCUCGGUACUGGCGAAUGGGACCCA [U46A A71C] | 1.11
20 | GGCCGGCAUGGUCCCAGCCUCCUCGCUGGCGCCGGCUGGGCAACUUUCCGAGGGGACCGUCCCCUUGGUAAUGGCGAAUGGGACCCA [A45U C66U] | 1.02
21 | GGCCGGCAUGGUCCCAGCCUCCUCGCUGGCGCCGGCUGGGCAACUUUCCGAGGGGACCGUCCCCUAGGUAAUGGCGAAUGGGACCCA [A45U C66A] | 0.812
22 | GGCCGGCAUGGUCCCAGCCUCCUCGCUGGCGCCGGCUGGGCAACUUUCCGAGGGGACCGUCCCCUGGGUAAUGGCGAAUGGGACCCA [A45U C66G] | 0.919

Row | Variant | self-cleavage
23 | GGCCGGCAUGGUCCCAGCCUCCUCGCUGGCGCCGGCUGGGCAACUUUCCGAGGAGACCGUCCCCUCGGUAAUGGCGAAUGGGACCCA [A45U G54A] | 0.939
24 | GGCCGGCAUGGUCCCAGCCUCCUCGCUGGCGCCGGCUGGGCAACUUUCCGAGGGGACCGUCCCCUCGGUAAUGGCGAAUAGGACCCA [A45U G80A] | 0.205
25 | GGCCGGCAUGGUCCCAGCCUCCUCGCUGGCGCCGGCUGGGCAACUUUCCGAGGGGACCGUCCCCUCGGUAAUGGCUAAUGGGACCCA [A45U G76U] | 0.652
26 | GGCCGGCAUGGUCCCAGCCUCCUCGCUGGCGCCGGCUGGGCAACGUUCCGAGGGGACCGUCCCCUCGGUAAUGACGAAUGGGACCCA [A45G G74A] | 0.517
27 | GGCCGGCAUGGUCCCAGCCUCCUCGCUGGCGCCGGCUGGGCAACGUUCCGAGGGGACCGUCCCCUCGGUAAUGCCGAAUGGGACCCA [A45G G74C] | 0.332
28 | GGCCGGCAUGGUCCCAGCCUCCUCGCUGGCGCCGGCUGGGCAACUUUCCGAGGGGACCGUCCCCUCGGUAAUGGCGAAUGGGAACCA [A45U C84A] | 0.446
29 | GGCCGGCAUGGUCCCAGCCUCCUCGCUGGCGCCGGCUGGGCAACAAUCCGAGGGGACCGUCCCCUCGGUAAUGGCGACUGGGACCCA [U46A A78C] | 0.131
30 | GGCCGGCAUGGUCCCAGCCUCCUCGCUGGCGCCGGCUGGGCAACGUUCCGAGGGGACCGUCCCCUCGGUAAUGGCUAAUGGGACCCA [A45G G76U] | 1.12
31 | GGCCGGCAUGGUCCCAGCCUCCUCGCUGGCGCCGGCUGGGCAACAAUCCGAGGUGACCGUCCCCUCGGUAAUGGCGAAUGGGACCCA [U46A G54U] | 0.684
32 | GGCCGGCAUGGUCCCAGCCUCCUCGCUGGCGCCGGCUGGGCAACGUUCCGAGGGGACCGUCCCCCCGGUAAUGGCGAAUGGGACCCA [A45G U65C] | 1.01
33 | GGCCGGCAUGGUCCCAGCCUCCUCGCUGGCGCCGGCUGGGCAACUUUCCGAGGGGACCGUCCCCUCGGUAAUGGCGAAUGAGACCCA [A45U G81A] | 0.259
34 | GGCCGGCAUGGUCCCAGCCUCCUCGCUGGCGCCGGCUGGGCAACAAUCCGAGGGGACCGUUCCCUCGGUAAUGGCGAAUGGGACCCA [U46A C61U] | 0.61
35 | GGCCGGCAUGGUCCCAGCCUCCUCGCUGGCGCCGGCUGGGCAACAAUCCGAGGGGACCGUCCCCUUGGUAAUGGCGAAUGGGACCCA [U46A C66U] | 0.743
36 | GGCCGGCAUGGUCCCAGCCUCCUCGCUGGCGCCGGCUGGGCAACGUUCCGAGGGGACCGGCCCCUCGGUAAUGGCGAAUGGGACCCA [A45G U60G] | 1.31
37 | GGCCGGCAUGGUCCCAGCCUCCUCGCUGGCGCCGGCUGGGCAACGUGCCGAGGGGACCGUCCCCUCGGUAAUGGCGAAUGGGACCCA [A45G U47G] | 0.767
38 | GGCCGGCAUGGUCCCAGCCUCCUCGCUGGCGCCGGCUGGGCAACGUUCCGAGGGGACCGUCCCCUCGGUAAUGGCGAAUGAGACCCA [A45G G81A] | 0.435
39 | GGCCGGCAUGGUCCCAGCCUCCUCGCUGGCGCCGGCUGGGCAACUUUCCGAGGGCACCGUCCCCUCGGUAAUGGCGAAUGGGACCCA [A45U G55C] | 0.956
40 | GGCCGGCAUGGUCCCAGCCUCCUCGCUGGCGCCGGCUGGGCAACUUUCCGAGGGUACCGUCCCCUCGGUAAUGGCGAAUGGGACCCA [A45U G55U] | 0.698
41 | GGCCGGCAUGGUCCCAGCCUCCUCGCUGGCGCCGGCUGGGCAACGUUCCGAGGGGACCGUCCCCUCGGCAAUGGCGAAUGGGACCCA [A45G U69C] | 0.72
42 | GGCCGGCAUGGUCCCAGCCUCCUCGCUGGCGCCGGCUGGGCAACGUUCCGAGGGGACCGUCCCCUCGGGAAUGGCGAAUGGGACCCA [A45G U69G] | 1.21
43 | GGCCGGCAUGGUCCCAGCCUCCUCGCUGGCGCCGGCUGGGCAACGGUCCGAGGGGACCGUCCCCUCGGUAAUGGCGAAUGGGACCCA [A45G U46G] | 0.643
44 | GGCCGGCAUGGUCCCAGCCUCCUCGCUGGCGCCGGCUGGGCAACGUUCCGAGGGGACCGUCCCCUCGGUAAUGGCGAAUUGGACCCA [A45G G80U] | 0.151

Row | Variant | self-cleavage
45 | GGCCGGCAUGGUCCCAGCCUCCUCGCUGGCGCCGGCUGGGCAACUUUCCGAGGGGACCGUCCCCUCGGUAAUGUCGAAUGGGACCCA [A45U G74U] | 0.305
46 | GGCCGGCAUGGUCCCAGCCUCCUCGCUGGCGCCGGCUGGGCAACUUUCCGAGGGGAACGUCCCCUCGGUAAUGGCGAAUGGGACCCA [A45U C57A] | 0.906
47 | GGCCGGCAUGGUCCCAGCCUCCUCGCUGGCGCCGGCUGGGCAACUUUCCGAGGGGACCGUCCCGUCGGUAAUGGCGAAUGGGACCCA [A45U C64G] | 0.671
48 | GGCCGGCAUGGUCCCAGCCUCCUCGCUGGCGCCGGCUGGGCAACAAUCCGAGGGGACCAUCCCCUCGGUAAUGGCGAAUGGGACCCA [U46A G59A] | 0.78
49 | GGCCGGCAUGGUCCCAGCCUCCUCGCUGGCGCCGGCUGGGCAACAAUCCGAGGGGACCGUCCCCUCGGUAAUGGUGAAUGGGACCCA [U46A C75U] | 0.0665
50 | GGCCGGCAUGGUCCCAGCCUCCUCGCUGGCGCCGGCUGGGCAACAAUCCGAGGGGACCGUCCCCUCGGUAAUGGAGAAUGGGACCCA [U46A C75A] | 0.151
51 | GGCCGGCAUGGUCCCAGCCUCCUCGCUGGCGCCGGCUGGGCAACUUUCCGAGGGGACCGUCCCCUCGGUCAUGGCGAAUGGGACCCA [A45U A70C] | 0.95
52 | GGCCGGCAUGGUCCCAGCCUCCUCGCUGGCGCCGGCUGGGCAACAAUCCGAGGGGACCGUCCCCUCGGUAAUGGCGAAUGGGACCCC [U46A A87C] | 0.744
53 | GGCCGGCAUGGUCCCAGCCUCCUCGCUGGCGCCGGCUGGGCAACUUUCCGAGGGGACCGUCCCCUCGGUAAUGGCGAUUGGGACCCA [A45U A78U] | 0.155
54 | GGCCGGCAUGGUCCCAGCCUCCUCGCUGGCGCCGGCUGGGCAACUUUCCGAGGGGACCGUCCCCUCGGUAAUGGCGAAUGGGGCCCA [A45U A83G] | 0.847
55 | GGCCGGCAUGGUCCCAGCCUCCUCGCUGGCGCCGGCUGGGCAACAAUCCGAAGGGACCGUCCCCUCGGUAAUGGCGAAUGGGACCCA [U46A G52A] | 0.776
56 | GGCCGGCAUGGUCCCAGCCUCCUCGCUGGCGCCGGCUGGGCAACAAUCCGAUGGGACCGUCCCCUCGGUAAUGGCGAAUGGGACCCA [U46A G52U] | 0.596
57 | GGCCGGCAUGGUCCCAGCCUCCUCGCUGGCGCCGGCUGGGCAACAAUCCGAGCGGACCGUCCCCUCGGUAAUGGCGAAUGGGACCCA [U46A G53C] | 0.877
58 | GGCCGGCAUGGUCCCAGCCUCCUCGCUGGCGCCGGCUGGGCAACAAUCCGAGAGGACCGUCCCCUCGGUAAUGGCGAAUGGGACCCA [U46A G53A] | 0.741
59 | GGCCGGCAUGGUCCCAGCCUCCUCGCUGGCGCCGGCUGGGCAACUUUCCGAGGGGACCGUCCCCUCGGUAAUGGCGAAGGGGACCCA [A45U U79G] | 0.506
60 | GGCCGGCAUGGUCCCAGCCUCCUCGCUGGCGCCGGCUGGGCAACAAUCCGAGGGGACCGUCCCCUCGGUAAUGGCGAAUGGGACCAA [U46A C86A] | 0.958
61 | GGCCGGCAUGGUCCCAGCCUCCUCGCUGGCGCCGGCUGGGCAACAAUCCGAGGGGACCGUCCUCUCGGUAAUGGCGAAUGGGACCCA [U46A C63U] | 0.763
62 | GGCCGGCAUGGUCCCAGCCUCCUCGCUGGCGCCGGCUGGGCAACAAUCCGAGGGGACCGUCCACUCGGUAAUGGCGAAUGGGACCCA [U46A C63A] | 0.499
63 | GGCCGGCAUGGUCCCAGCCUCCUCGCUGGCGCCGGCUGGGCAACUUUCCGAGGGGACCGGCCCCUCGGUAAUGGCGAAUGGGACCCA [A45U U60G] | 0.643
64 | GGCCGGCAUGGUCCCAGCCUCCUCGCUGGCGCCGGCUGGGCAACGUUCCGAGGGGACCGUCCCCUCGGUAAUGGCGAAUGGUACCCA [A45G G82U] | 0.475
